Measurements taken from article PMC6769490, “Protein Engineering of Multi-Modular Transcription Factor Alcohol Dehydrogenase Repressor 1 (Adr1p), a Tool for Dissecting In Vitro Transcription Activation” (Biomolecules, 2019).
Values joined by “and” are separate entries in the source; they are usually repeats but may differ in a detail not shown here. Identical values can stand only once.

How the values were obtained:
[1] = molecular target: the molecule itself; assay: native gel or EMSA; N-PAGE/EMSA with half site dsDNA (one binding site), no CHAPS; 20, 40 and 80 pmol protein; stoichiometric mixture of both proteins (40 pmol) in lane 7
[2] = molecular target: the molecule itself; assay: SEC; miniAdr1-BL alone, freshly purified and concentrated, no DNA; Superdex G75 on HPLC, 50 mM Na/K phosphate pH 6.9, 150 mM NaCl, 4 mM TCEP, 5 mM CHAPS, 5% glycerol, 3.5 mM spermine, 0.018 mM Zn acetate; 0.4 mL/min; masses from a calibration curve
[3] = molecular target: the molecule itself; assay: native gel or EMSA; DNA binding assay with half site dsDNA; partially purified His-tagged Adr1-165 from bacteria (Supplementary Figure S1d, lanes 12-14)
Adr1-DBD (untagged) [4] = molecular target: T1, Adr1-DBD (untagged) (Saccharomyces cerevisiae, UniProt P07248 75-178); assay: EMSA; 5 mM CHAPS, Zn acetate; two smeared bands; 40 mM Na phosphate pH 7.5, 40 mM NaCl, 10% glycerol, 18 uM Zn acetate (+/- 5 mM CHAPS, DTT, spermine), 30 min 4 C; HPLC-purified: 20 mM phosphate pH 7.0, 40 mM; conditions: protein: recombinant; tags: none; label: 33P (5' kinase label); self-complementary duplex, 5' overhang 4 nt at both ends
T1 sequence: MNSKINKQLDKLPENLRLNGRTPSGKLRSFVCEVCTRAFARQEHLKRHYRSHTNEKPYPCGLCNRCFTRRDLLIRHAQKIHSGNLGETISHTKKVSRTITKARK

miniAdr1-BL (untagged) [5] = molecular target: T2, miniAdr1-BL (untagged) (Saccharomyces cerevisiae, UniProt P07248 75-471, del1-74;del179-418;del472-1323); assay: EMSA; 5 mM CHAPS, Zn acetate; protein 3.16e-8 to 1e-6 M, DNA 1e-8 M; 40 mM Na phosphate pH 7.5, 40 mM NaCl, 10% glycerol, 18 uM Zn acetate (+/- 5 mM CHAPS, DTT, spermine), 30 min 4 C; HPLC-purified: 20 mM phosphate pH 7.0, 40 mM; conditions: protein: recombinant; tags: none; chain copies: 2; label: 33P (5' kinase label); self-complementary duplex, 5' overhang 4 nt at both ends
T2 sequence: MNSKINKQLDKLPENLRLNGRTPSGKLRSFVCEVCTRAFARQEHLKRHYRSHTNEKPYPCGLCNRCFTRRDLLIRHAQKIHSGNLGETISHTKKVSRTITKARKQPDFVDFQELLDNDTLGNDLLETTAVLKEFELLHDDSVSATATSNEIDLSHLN

miniAdr1-BL (untagged) [6] = molecular target: T2, miniAdr1-BL (untagged); assay: EMSA; 5 mM CHAPS; hairpin not competent for binding; 40 mM Na phosphate pH 7.5, 40 mM NaCl, 10% glycerol, 18 uM Zn acetate (+/- 5 mM CHAPS, DTT, spermine), 30 min 4 C; HPLC-purified: 20 mM phosphate pH 7.0, 40 mM; conditions: protein: recombinant; tags: none; chain copies: 2; label: 33P; hairpin of a single strand, 5' overhang 4 nt
miniAdr1-BL (untagged) [7] = molecular target: T2, miniAdr1-BL (untagged); assay: EMSA; no CHAPS, Zn acetate; mostly dimer; 40 mM Na phosphate pH 7.5, 40 mM NaCl, 10% glycerol, 18 uM Zn acetate (+/- 5 mM CHAPS, DTT, spermine), 30 min 4 C; HPLC-purified: 20 mM phosphate pH 7.0, 40 mM; conditions: protein: recombinant; tags: none; chain copies: 2; label: 33P or none (ethidium bromide); 5' overhang 1 nt at both ends
Adr1-DBD (untagged) [8] = molecular target: T1, Adr1-DBD (untagged); assay: EMSA; no CHAPS, Zn acetate; mostly monomer; 40 mM Na phosphate pH 7.5, 40 mM NaCl, 10% glycerol, 18 uM Zn acetate (+/- 5 mM CHAPS, DTT, spermine), 30 min 4 C; HPLC-purified: 20 mM phosphate pH 7.0, 40 mM; conditions: protein: recombinant; tags: none; label: 33P or none (ethidium bromide); 5' overhang 1 nt at both ends
His-Adr1-165 = molecular target: T3, His-Adr1-165 (Saccharomyces cerevisiae, UniProt P07248 1-165); assay: EMSA; CM + heparin purified; monomer and dimer; 40 mM Na phosphate pH 7.5, 40 mM NaCl, 10% glycerol, 18 uM Zn acetate (+/- 5 mM CHAPS, DTT, spermine), 30 min 4 C; HPLC-purified: 20 mM phosphate pH 7.0, 40 mM; conditions: protein: recombinant; tags: His-tag; label: 33P or none (ethidium bromide); 5' overhang 1 nt at both ends
T3 sequence: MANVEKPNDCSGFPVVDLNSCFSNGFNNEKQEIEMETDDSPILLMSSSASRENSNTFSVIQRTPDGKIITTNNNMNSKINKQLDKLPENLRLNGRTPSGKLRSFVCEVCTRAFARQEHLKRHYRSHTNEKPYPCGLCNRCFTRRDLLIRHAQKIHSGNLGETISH

B1: miniAdr1-BL (Adr1_Δ179-418), untagged (domain or fragment, Saccharomyces cerevisiae, UniProt P07248 75-471, looked up)
chain: T2 sequence
notes: Alcohol dehydrogenase repressor 1 (Adr1p), Saccharomyces cerevisiae, UniProt P07248; residues 75-178 (PAR-TAD I with the basic linker 158-178) directly linked to residues 419-471 (core of TAD III); TAD I and TAD III fragments were ligated through inserted BamHI sites; Printed mass 18 kDa; also called construct (4); basic linker construct; source: Komagataella pastoris X-33, cytoplasm, purified …
stoichiometry N [1]: 2
stoichiometry N [2]: ~2 and ~3

B2: Adr1-DBD (residues 75-178), untagged (domain or fragment, Saccharomyces cerevisiae, UniProt P07248 75-178, looked up)
chain: T1 sequence
notes: Alcohol dehydrogenase repressor 1 (Adr1p), Saccharomyces cerevisiae, UniProt P07248; Printed mass 12.4 kDa; also called construct (5); source: Komagataella pastoris X-33, purified (CM sepharose, SEC)
stoichiometry N [1]: 2

B3: His-tagged Adr1-165 (residues 1-165) (domain or fragment, Saccharomyces cerevisiae, UniProt P07248 1-165, looked up)
chain: T3 sequence
notes: Alcohol dehydrogenase repressor 1 (Adr1p), Saccharomyces cerevisiae, UniProt P07248; residues 1-165, comprising only TAD I; also called HisAdr1-165; His-Adr1-165; source: E. coli BL21(DE3), pET28b, partially purified
stoichiometry N [3]: 2

B4: Palindromic UAS1 (dsDNA)
DNA 1: CCGGCCTCTCCAACTTATAAGTTGGAGAGG
DNA 2: B4 DNA 1
binding result (Adr1-DBD (untagged) [4]): binds
binding result (miniAdr1-BL (untagged) [5]): binds

CCGGCCTCTCCAACTTATAAGTTGGAGAGG (structured_DNA) [Palindromic UAS1 hairpin]
binding result (miniAdr1-BL (untagged) [6]): no binding

B5: Half site UAS1 (dsDNA)
DNA 1: TCCGGGCATCTCCAACTTA
DNA 2: CTAAGTTGGAGATGCCCGG
binding result (miniAdr1-BL (untagged) [7]): binds
binding result (Adr1-DBD (untagged) [8]): binds
binding result (His-Adr1-165): binds
